Test results: US20240287172A1 (SCIRHOM, published 2024)
Positions count from the first letter of the chain named.

T1: hiR2-FL-I566E-T7 (human, UniProt Q6PJF5 1-856)
T1 construct: on MEF-DKO cells; also called hiR2-FL-1566E-T7
T1 sequence: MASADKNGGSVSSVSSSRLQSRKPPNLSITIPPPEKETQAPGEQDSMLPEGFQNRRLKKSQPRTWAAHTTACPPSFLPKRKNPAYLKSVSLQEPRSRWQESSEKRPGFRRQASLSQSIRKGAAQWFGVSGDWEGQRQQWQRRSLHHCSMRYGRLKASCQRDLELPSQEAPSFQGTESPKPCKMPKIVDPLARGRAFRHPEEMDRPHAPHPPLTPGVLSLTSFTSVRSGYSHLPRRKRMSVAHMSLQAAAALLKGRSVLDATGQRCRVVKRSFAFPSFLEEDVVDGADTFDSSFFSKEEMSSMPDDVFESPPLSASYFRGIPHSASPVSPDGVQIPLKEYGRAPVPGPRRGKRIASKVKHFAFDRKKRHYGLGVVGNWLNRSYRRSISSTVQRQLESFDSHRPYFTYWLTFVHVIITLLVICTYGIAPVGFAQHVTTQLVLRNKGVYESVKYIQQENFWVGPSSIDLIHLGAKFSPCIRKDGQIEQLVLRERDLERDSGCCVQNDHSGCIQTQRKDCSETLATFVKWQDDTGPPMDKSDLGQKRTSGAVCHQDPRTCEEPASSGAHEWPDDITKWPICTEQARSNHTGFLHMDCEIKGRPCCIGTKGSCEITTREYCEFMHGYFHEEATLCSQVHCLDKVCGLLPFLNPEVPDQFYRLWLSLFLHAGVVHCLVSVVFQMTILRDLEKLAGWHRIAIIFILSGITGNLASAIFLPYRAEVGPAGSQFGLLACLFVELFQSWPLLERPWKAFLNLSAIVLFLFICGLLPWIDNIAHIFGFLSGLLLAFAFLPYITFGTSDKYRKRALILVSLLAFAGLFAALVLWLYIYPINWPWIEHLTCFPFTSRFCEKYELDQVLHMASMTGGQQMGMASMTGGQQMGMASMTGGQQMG

B1: antibody 5 (antibody, V domains shown)
VH: QVTLKESGPGILQPSQTLSLTCSFSGFSLSTFGMGVGWIRQPSGKGLEWLAHIWWDDEKYYNSALKSRLTISKATSKNQAFLKIANVDTADTATYYCARISNYGSNYWYFNVWGTGTTVTVSS
VL: QVVLTQSPALMSASPGEKVTMTCSAGSSVSCMYWYQQKPGSSPRVLIYDTSNLASGVPARFTGSGSGTSYSLTISRMEAEDAASYYCQQWNSYPLTFGAGTKLELK
notes: mouse IgG, kappa light chain; also called clone #5; purified antibody 5
B2: antibody 22 (antibody, V domains shown)
VH: B1 VH with A80V
VL: B1 VL with C31Y, S84T
notes: mouse IgG, kappa light chain; also called clone #22; purified antibody 22
B3: antibody 42 (antibody, V domains shown)
VH: B1 VH with F24L, M34R, S63P, A74D, A80V, K83R, S101Q, N111D
VL: LIVLTQSPAIMSASPGEKVTMTCGATSRISYMFWYQQKPGSSPRVLIYDTSNLASGVPVRFSGSGSGTSYSLTISRVEAEDVATYYCQQWNSYPLTFGAGTKLELK
notes: mouse IgG, kappa light chain; also called clone #42; purified antibody 42
B4: antibody 3 (antibody, V domains shown)
VH: QVTLKESGPGILQPSQTLSLTCSFSGFSLTTFAMGIGWVRQPSGKGLEWLAHIWWDGEKYNNPVLKSRLTISKDTSKNQVFLRIANVDTPDTATYYCARISSIYYIIDNWGQGTSVTVSS
VL: DIVLTQSPATLSVTPGHSVSLSCRASQSISNNLHWYQKKSHESPRLLIKYVSQSISGIPSRFSGSGSGTDFTLSINSVETEDFGMYFCQQSYNWPLTFGAGTKLELK
notes: mouse IgG, kappa light chain; also called clone #3; purified antibody 3
B5: antibody 34 (antibody, V domains shown)
VH: QVTLKESGPGILQPSQTLSLTCSFSGFSLSTFSLGVGWIRQSSGKGLEWLAHIWWDDEKYYNPALKSRLTISKDTSKNQVFLKIANVDAADTATYYCARAYYSKSYYALDYWGQGTSVTVSS
VL: DIQMTQSPSSLSASLGERVSLTCRASQEISGYLSWLQQKPDGTIKRLIYAASTLDSGVPKRFSGSRSGSDYSLAISSLESEDFADYYCLQYANFPFTFGSGTKLEIK
notes: mouse IgG, kappa light chain; also called clone #34; purified antibody 34
B6: antibody 43 (antibody, V domains shown)
VH: B1 VH with T3A, P42S, H52N, E58D, S63P, A74D, T75A, S101G, N111D
VL: B3 VL with L1Q, K18R, G24S, T26N, F33Y, V45L, V77M, V82A, Y86N, N91S
notes: mouse IgG, kappa light chain; also called clone #43; purified antibody 43
B7: antibody 44 (antibody, V domains shown)
VH: B1 VH with G44E, E58D, S63P, A74D, A80I, A85T, D91E, A98S, S101G, N111D
VL: QIVLTQSPAVMSASPGEKVTMTCTASSSVYYMYWYQQTPGSSPRLLIYDTSNLASGVPVRFSGSGSGTSYSLTISRMEAEDAATYYCQQWNTYPLTFGAGTKLELK
notes: mouse IgG, kappa light chain; also called clone #44; purified antibody 44

Target: T1, hiR2-FL-I566E-T7
Experiment: FACS, MEF-DKO cells, 3 µg/ml
Description: In brief, immortalized MEF-DKO hiR2-FL-G563D-T7, MEF-DKO hiR2-FL-A564P-T7, MEF-DKO hiR2-FL-1566E-T7, MEF-DKO hiR2-FL-D569E-T7, MEF-DKO hiR2-FL-E579K-T7, MEF-DKO hiR2-FL-Q580N-T7, MEF-DKO hiR2-FL-A581S-T7, MEF-DKO hiR2-FL-R582A-T7, MEF-DKO hiR2-FL-S583G-T7, MEF-DKO hiR2-FL-G587N-T7, MEF-DKO hiR2-FL-F588H-T7, MEF-DKO hiR2-FL-L589P-T7, MEF-DKO hiR2-FL-E594V-T7, MEF-DKO hiR2-FL-K596T-T7, MEF-DKO hiR2-FL-S607R-T7, MEF-DKO hiR2-FL-T612S-T7, MEF-DKO hiR2-FL-E617D-T7, MEF-DKO hiR2-FL-H620R-T7, MEF-DKO hiR2-FL-L636M-T7, MEF-DKO hiR2-FL-K638D-T7, MEF-DKO hiR2-FL-1771F-T7, MEF-DKO hiR2-FL-1825V-T7, MEF-DKO hiR2-FL-1828V-T7, MEF-DKO hiR2-FL-N829R-T7, MEF-DKO hiR2-FL-W830C-T7, MEF-DKO hiR2-FL-P831E-T7, MEF-DKO hiR2-FL-I833C-T7, MEF-DKO hiR2-FL-H835F-T7, MEF-DKO hiR2-FL-F8391-T7, MEF-DKO hiR2-FL-S843D-T7, MEF-DKO hiR2-FL-Q853A-T7, MEF-DKO hiR2-FL-V854Q-T7 and MEF-DKO hiR2-FL-R844K-T7 cells were harvested with 10 mM EDTA in PBS, washed and resuspended in FACS buffer (PBS, 3% FBS, 0.05% sodium azide), and seeded in Nunc U-bottom 96-well plates (Thermo Fisher Scientific, USA) at approximately 1×10⁵ cells per well. To pellet cells and remove supernatants, the plates were centrifuged at 1,500 rpm and 4° C. for 3 minutes. For primary staining, cells were resuspended in 100 μl per well of either FACS buffer alone (controls) or the purified antibodies 3, 5, 16, 22, 34, 42, 43, 44, 48, and 50 of the invention at 3 μg/ml in FACS buffer and incubated on ice for 1 hour. Afterwards, plates were centrifuged at 1,500 rpm and 4° C. for 3 minutes and washed twice with 200 μl per well of FACS buffer. For secondary staining, cells were spun down and resuspended in 100 μl per well of PE-conjugated goat anti-mouse IgG F(ab′)2 detection fragment (Dianova, Germany) diluted 1:100 in FACS buffer. Protected from light, the cell suspensions were incubated on ice for 1 hour. Plates were then centrifuged at 1,500 rpm and 4° C. for 3 minutes and washed three times with 200 μl per well of FACS buffer. Finally, cells were resuspended in 150 μl per well of FACS buffer and analyzed using a BD Accuri™ C6 Plus flow cytometer (Becton Dickinson, Germany).

| Binder | loss of binding vs wild type |
| --- | --- |
| B1 | ≥ 95% |
| B2 | ≥ 60% |
| B3 | ≥ 60% |
| B4 | ≥ 30% |
| B5 | ≥ 60% |
| B6 | ≥ 60% |
| B7 | ≥ 60% |
